The text below walks through data of publication doi:10.1101/431494, “Conservation of the structural and functional architecture of encapsulated ferritins in bacteria and archaea” (bioRxiv, 2018).

Several values for one entry are separate records, joined by “and”; a condition that tells them apart may be missing. Equal entries are not always repeated.

Data set [1] concerns the molecule itself. Put plainly: native MS; nano-ESI, 100 mM ammonium acetate pH 8.0, ~5 uM (oligomer concentration).
Data set [2] concerns the molecule itself. Put plainly: SEC; analytical size-exclusion chromatography, Superdex 200 16/60, 50 mM Tris-HCl pH 8.0, 150 mM NaCl, calibrated with standards of known molecular weight. On the technique in general: Size exclusion chromatography separates by hydrodynamic size, large species first.
Data set [3] concerns the molecule itself. Briefly: SDS-PAGE (resistance of oligomers to SDS and heat denaturation); SDS-PAGE of the size-exclusion peak fractions.
Data set [4] concerns the molecule itself. Briefly: crystal structure; sitting drop vapour diffusion; Hoch_EncFtn in 0.2 M NaCl, 0.1 M Bis-Tris pH 5.5, 20 % PEG 3350; Pfc_EncFtn in 0.2 M LiSO4, 20 % PEG 3350; molecular replacement with PDB 5DA5.

B1: Rhodospirillum rubrum encapsulated ferritin, hexahistidine-tagged variant (natural protein, UniProt Q2RVS1 1-140, looked up)
chain: MAQSSNSTHEPLEVLKEETVNRHRAIVSVMEELEAVDWYDQRVDASTDPELTAILAHNRDEEKEHAAMTLEWLRRNDAKWAEHLRTYLFTEGPITAIEAADTAGEGSGGDAAKGATAQGDGSLGIGSLKGEAALARPPRL
By stoichiometry N is commonly meant the number of molecules, sites or subunits per partner or assembly. Regarding B1, the “stoichiometry N” value in data set [1] was 10.

B2: Rhodospirillum rubrum encapsulated ferritin, Strep-tagged variant (natural protein, UniProt Q2RVS1 1-140, looked up)
chain: B1 chain
notes: source: recombinant, purified by Strep-Trap column HP
Take B2: in data set [2], the “stoichiometry N” value was 10.

B3: Pyrococcus furiosus encapsulated ferritin domain, residues 1-99, C-terminal StrepII-tagged variant (domain or fragment, UniProt Q8U1L4 1-99, looked up)
chain: MLSINPTLINRDKPYTKEELMEILRLAIIAELDAINLYEQMARYSEDENVRKILLDVAREEKAHVGEFMALLLNLDPEQVTELKGGFEEVKELTGIEAH
notes: EncFtn domain (residues 1-99) of the single contiguous EncFtn-encapsulin polypeptide of Pyrococcus furiosus; locus tag printed as Pfc_01575, Pfc_05157 and Pfc_05175; source: E. coli BL21(DE3), purified (Strep-Trap HP); not shown: StrepII, C-terminal, kept
With B3, the “stoichiometry N” value is 2 in data set [3]; 10 and ~20 in data set [2].

B4: Pyrococcus furiosus encapsulated ferritin domain as crystallised (PDB 5N5E) (domain or fragment, UniProt Q8U1L4 1-99, looked up)
chain: B3 chain
notes: EncFtn domain (residues 1-99) of the single contiguous EncFtn-encapsulin polypeptide of Pyrococcus furiosus; electron density visible for residues 2-98 in each chain; source: E. coli BL21(DE3), purified; copies: 10
In the case of B4, the “stoichiometry N” value in data set [4] worked out at 10.

B5: Pyrococcus furiosus encapsulated ferritin domain, residues 1-99, C-terminal hexahistidine tagged variant (domain or fragment, UniProt Q8U1L4 1-99, looked up)
chain: B3 chain
notes: EncFtn domain (residues 1-99) of the single contiguous EncFtn-encapsulin polypeptide of Pyrococcus furiosus; locus tag printed as Pfc_01575, Pfc_05157 and Pfc_05175; source: E. coli BL21(DE3), purified (HisTrap FF, S200 size-exclusion chromatography); not shown: His6, C-terminal, kept
In the case of B5, the figures for the “stoichiometry N” value in data set [1] and in data set [2] were 10 and about 10, respectively.
